From US20180291335A1, “MODIFIED POLYNUCLEOTIDES FOR ALTERING CELL PHENOTYPE” (ModernaTX, Inc., priority 2012, published 2018)

Key:
Type in all cases: cell-based, human
[1] = test system: peripheral blood mononuclear cells (PBMC); experiment: In vitro PBMC study, percent modification: G-CSF expression by ELISA; conditions: for G-CSF Expression: 22 hours after transfection; for Average G-CSF: PBMC, average of three donors
Protocol: 480 ng of G-CSF mRNA modified with 5-methylcytosine (5mC) and pseudouridine (pseudoU) or unmodified G-CSF mRNA was transfected with 0.4 uL of Lipofectamine 2000 into peripheral blood mononuclear cells (PBMC) from three normal blood donors (D1, D2, and D3). […] The supernatant was harvested and run by ELISA 22 hours after transfection to determine the protein expression. The expression of IFN-alpha and TNF-alpha may be a secondary effect from the transfection of the G-CSF mRNA.

IFN-alpha = experiment: In vitro PBMC study, percent modification: IFN-alpha expression by ELISA; conditions: for Average IFN-a: average of three donors; for G-CSF/IFN-alpha (PC ratio): protein/cytokine ratio from averages
Protocol: (§1) The supernatant was harvested and run by ELISA 22 hours after transfection to determine the protein expression.

TNF-alpha = experiment: In vitro PBMC study, percent modification: TNF-alpha expression by ELISA; conditions: for Average TNF-a: average of three donors; for G-CSF/TNF-alpha (PC ratio): protein/cytokine ratio from averages
Protocol: as §1

[2] = PBMC donor D1, 22 hours after transfection
[3] = PBMC donor D2, 22 hours after transfection
[4] = PBMC donor D3, 22 hours after transfection
[5] = PBMC, versus natural G-CSF mRNA

Luciferase: control Luciferase mRNA (SEQ ID NO: 409, Cap1) fully modified 5meC and pseudoU [reference compound]
G-CSF Expression ([1]; PBMC donor D1, 480 ng mRNA): 90.2 pg/mL | G-CSF Expression ([1]; PBMC donor D2, 480 ng mRNA): 0.0 pg/mL | G-CSF Expression ([1]; PBMC donor D3, 480 ng mRNA): 22.1 pg/mL

B1: 100% modification: G-CSF mRNA (SEQ ID NO: 408, Cap1) completely modified with 5mC and pseudoU (nucleic acid)
chain: GGGAAAUAAGAGAGAAAAGAAGAGUAAGAAGAAAUAUAAGAGCCACCAUGGCCGGUCCCGCGACCCAAAGCCCCAUGAAACUUAUGGCCCUGCAGUUGCUGCUUUGGCACUCGGCCCUCUGGACAGUCCAAGAAGCGACUCCUCUCGGACCUGCCUCAUCGUUGCCGCAGUCAUUCCUUUUGAAGUGUCUGGAGCAGGUGCGAAAGAUUCAGGGCGAUGGAGCCGCACUCCAAGAGAAGCUCUGCGCGACAUACAAACUUUGCCAUCCCGAGGAGCUCGUACUGCUCGGGCACAGCUUGGGGAUUCCCUGGGCUCCUCUCUCGUCCUGUCCGUCGCAGGCUUUGCAGUUGGCAGGGUGCCUUUCCCAGCUCCACUCCGGUUUGUUCUUGUAUCAGGGACUGCUGCAAGCCCUUGAGGGAAUCUCGCCAGAAUUGGGCCCGACGCUGGACACGUUGCAGCUCGACGUGGCGGAUUUCGCAACAACCAUCUGGCAGCAGAUGGAGGAACUGGGGAUGGCACCCGCGCUGCAGCCCACGCAGGGGGCAAUGCCGGCCUUUGCGUCCGCGUUUCAGCGCAGGGCGGGUGGAGUCCUCGUAGCGAGCCACCUUCAAUCAUUUUUGGAAGUCUCGUACCGGGUGCUGAGACAUCUUGCGCAGCCGUGAAGCGCUGCCUUCUGCGGGGCUUGCCUUCUGGCCAUGCCCUUCUUCUCUCCCUUGCACCUGUACCUCUUGGUCUUUGAAUAAAGCCUGAGUAGGAAG
modifications: Cap1; full 5mC and pseudoU modification; Description of Artificial Sequence: Synthetic Transcript Sequence
G-CSF Expression ([1]; PBMC donor D1, 480 ng mRNA): 1968.9 pg/mL | G-CSF Expression ([1]; PBMC donor D2, 480 ng mRNA): 2595.6 pg/mL | G-CSF Expression ([1]; PBMC donor D3, 480 ng mRNA): 2835.7 pg/mL | Average G-CSF [1]: 2466 pg/mL | IFN-alpha Expression (IFN-alpha; [2]): 336.5 pg/mL | IFN-alpha Expression (IFN-alpha; [3]): 78.0 pg/mL | IFN-alpha Expression (IFN-alpha; [4]): 46.4 pg/mL | Average IFN-a (IFN-alpha; PBMC): 153 pg/mL | G-CSF/IFN-alpha (PC ratio) (IFN-alpha; PBMC): 16 | better ratio of protein/cytokine production than without any modification, IFN-alpha (IFN-alpha; [5]): 100 fold | TNF-alpha Expression (TNF-alpha; [2]): 115.0 pg/mL | TNF-alpha Expression (TNF-alpha; [3]): 15.0 pg/mL | TNF-alpha Expression (TNF-alpha; [4]): 11.1 pg/mL | Average TNF-a (TNF-alpha; PBMC): 47 pg/mL | G-CSF/TNF-alpha (PC ratio) (TNF-alpha; PBMC): 52 | better ratio of protein/cytokine production than without any modification, TNF-alpha (TNF-alpha; [5]): 27 fold

B2: 0% modification: unmodified G-CSF mRNA (SEQ ID NO: 408), not modified with 5mC and pseudoU (nucleic acid)
chain: GGGAAAUAAGAGAGAAAAGAAGAGUAAGAAGAAAUAUAAGAGCCACCAUGGCCGGUCCCGCGACCCAAAGCCCCAUGAAACUUAUGGCCCUGCAGUUGCUGCUUUGGCACUCGGCCCUCUGGACAGUCCAAGAAGCGACUCCUCUCGGACCUGCCUCAUCGUUGCCGCAGUCAUUCCUUUUGAAGUGUCUGGAGCAGGUGCGAAAGAUUCAGGGCGAUGGAGCCGCACUCCAAGAGAAGCUCUGCGCGACAUACAAACUUUGCCAUCCCGAGGAGCUCGUACUGCUCGGGCACAGCUUGGGGAUUCCCUGGGCUCCUCUCUCGUCCUGUCCGUCGCAGGCUUUGCAGUUGGCAGGGUGCCUUUCCCAGCUCCACUCCGGUUUGUUCUUGUAUCAGGGACUGCUGCAAGCCCUUGAGGGAAUCUCGCCAGAAUUGGGCCCGACGCUGGACACGUUGCAGCUCGACGUGGCGGAUUUCGCAACAACCAUCUGGCAGCAGAUGGAGGAACUGGGGAUGGCACCCGCGCUGCAGCCCACGCAGGGGGCAAUGCCGGCCUUUGCGUCCGCGUUUCAGCGCAGGGCGGGUGGAGUCCUCGUAGCGAGCCACCUUCAAUCAUUUUUGGAAGUCUCGUACCGGGUGCUGAGACAUCUUGCGCAGCCGUGAAGCGCUGCCUUCUGCGGGGCUUGCCUUCUGGCCAUGCCCUUCUUCUCUCCCUUGCACCUGUACCUCUUGGUCUUUGAAUAAAGCCUGAGUAGGAAG
modifications: Description of Artificial Sequence: Synthetic Transcript Sequence
G-CSF Expression ([1]; PBMC donor D1, 480 ng mRNA): 194.8 pg/mL | G-CSF Expression ([1]; PBMC donor D2, 480 ng mRNA): 182.0 pg/mL | G-CSF Expression ([1]; PBMC donor D3, 480 ng mRNA): 183.3 pg/mL | Average G-CSF [1]: 186 pg/mL | IFN-alpha Expression (IFN-alpha; [2]): 1421.6 pg/mL | IFN-alpha Expression (IFN-alpha; [3]): 810.5 pg/mL | IFN-alpha Expression (IFN-alpha; [4]): 1260.5 pg/mL | Average IFN-a (IFN-alpha; PBMC): 1164 pg/mL | G-CSF/IFN-alpha (PC ratio) (IFN-alpha; PBMC): 0.16 | TNF-alpha Expression (TNF-alpha; [2]): 154.6 pg/mL | TNF-alpha Expression (TNF-alpha; [3]): 96.8 pg/mL | TNF-alpha Expression (TNF-alpha; [4]): 45.9 pg/mL | Average TNF-a (TNF-alpha; PBMC): 99 pg/mL | G-CSF/TNF-alpha (PC ratio) (TNF-alpha; PBMC): 1.9

B3: 75% modification: G-CSF mRNA (SEQ ID NO: 408) partially modified with 5mC and pseudoU, 75% modification (nucleic acid)
chain: GGGAAAUAAGAGAGAAAAGAAGAGUAAGAAGAAAUAUAAGAGCCACCAUGGCCGGUCCCGCGACCCAAAGCCCCAUGAAACUUAUGGCCCUGCAGUUGCUGCUUUGGCACUCGGCCCUCUGGACAGUCCAAGAAGCGACUCCUCUCGGACCUGCCUCAUCGUUGCCGCAGUCAUUCCUUUUGAAGUGUCUGGAGCAGGUGCGAAAGAUUCAGGGCGAUGGAGCCGCACUCCAAGAGAAGCUCUGCGCGACAUACAAACUUUGCCAUCCCGAGGAGCUCGUACUGCUCGGGCACAGCUUGGGGAUUCCCUGGGCUCCUCUCUCGUCCUGUCCGUCGCAGGCUUUGCAGUUGGCAGGGUGCCUUUCCCAGCUCCACUCCGGUUUGUUCUUGUAUCAGGGACUGCUGCAAGCCCUUGAGGGAAUCUCGCCAGAAUUGGGCCCGACGCUGGACACGUUGCAGCUCGACGUGGCGGAUUUCGCAACAACCAUCUGGCAGCAGAUGGAGGAACUGGGGAUGGCACCCGCGCUGCAGCCCACGCAGGGGGCAAUGCCGGCCUUUGCGUCCGCGUUUCAGCGCAGGGCGGGUGGAGUCCUCGUAGCGAGCCACCUUCAAUCAUUUUUGGAAGUCUCGUACCGGGUGCUGAGACAUCUUGCGCAGCCGUGAAGCGCUGCCUUCUGCGGGGCUUGCCUUCUGGCCAUGCCCUUCUUCUCUCCCUUGCACCUGUACCUCUUGGUCUUUGAAUAAAGCCUGAGUAGGAAG
modifications: 75% 5mC/pseudoU modified; Description of Artificial Sequence: Synthetic Transcript Sequence
G-CSF Expression ([1]; PBMC donor D1, 480 ng mRNA): 566.7 pg/mL | G-CSF Expression ([1]; PBMC donor D2, 480 ng mRNA): 631.4 pg/mL | G-CSF Expression ([1]; PBMC donor D3, 480 ng mRNA): 659.5 pg/mL | Average G-CSF [1]: 619 pg/mL | IFN-alpha Expression (IFN-alpha; [2]): 339.6 pg/mL | IFN-alpha Expression (IFN-alpha; [3]): 107.6 pg/mL | IFN-alpha Expression (IFN-alpha; [4]): 160.9 pg/mL | Average IFN-a (IFN-alpha; PBMC): 202 pg/mL | G-CSF/IFN-alpha (PC ratio) (IFN-alpha; PBMC): 3.1 | TNF-alpha Expression (TNF-alpha; [2]): 107.4 pg/mL | TNF-alpha Expression (TNF-alpha; [3]): 21.7 pg/mL | TNF-alpha Expression (TNF-alpha; [4]): 11.8 pg/mL | Average TNF-a (TNF-alpha; PBMC): 47 pg/mL | G-CSF/TNF-alpha (PC ratio) (TNF-alpha; PBMC): 13
